Laboratory results reported in patent US20240309087A1 (SHANGHAI JUNSHI BIOSCIENCES, published 2024).
Read-outs that look alike come from different tables or passages of the source.

T1: human CD112R on Jurkat CD112R effector cells (human, UniProt Q6DKI7 1-326)
T1 sequence (looked up): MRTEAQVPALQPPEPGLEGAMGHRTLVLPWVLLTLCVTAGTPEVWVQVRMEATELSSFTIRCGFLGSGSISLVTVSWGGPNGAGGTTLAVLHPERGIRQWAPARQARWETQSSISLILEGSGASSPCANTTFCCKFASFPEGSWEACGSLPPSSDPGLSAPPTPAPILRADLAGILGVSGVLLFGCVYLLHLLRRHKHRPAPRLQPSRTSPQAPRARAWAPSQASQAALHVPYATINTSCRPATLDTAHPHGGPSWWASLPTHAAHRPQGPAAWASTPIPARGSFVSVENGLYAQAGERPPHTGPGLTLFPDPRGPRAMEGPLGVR

T2: human CD112R on CHO-CD112R cells (human, UniProt Q6DKI7 41-326)
T2 construct: whole, on cells; also called hCD112R; PVRIG
T2 sequence (looked up): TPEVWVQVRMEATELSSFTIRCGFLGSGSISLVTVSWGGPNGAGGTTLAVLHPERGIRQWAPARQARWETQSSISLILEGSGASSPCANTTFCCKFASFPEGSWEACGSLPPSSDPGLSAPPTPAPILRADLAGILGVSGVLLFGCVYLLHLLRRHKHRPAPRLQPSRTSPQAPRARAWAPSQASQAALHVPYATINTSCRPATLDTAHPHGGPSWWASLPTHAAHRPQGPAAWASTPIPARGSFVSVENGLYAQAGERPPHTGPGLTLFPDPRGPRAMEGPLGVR

T3: recombinant cynomolgus monkey CD112R antigen (cynomolgus monkey, UniProt A0A2K5WVV8 1-322)
T3 construct: bought
T3 sequence: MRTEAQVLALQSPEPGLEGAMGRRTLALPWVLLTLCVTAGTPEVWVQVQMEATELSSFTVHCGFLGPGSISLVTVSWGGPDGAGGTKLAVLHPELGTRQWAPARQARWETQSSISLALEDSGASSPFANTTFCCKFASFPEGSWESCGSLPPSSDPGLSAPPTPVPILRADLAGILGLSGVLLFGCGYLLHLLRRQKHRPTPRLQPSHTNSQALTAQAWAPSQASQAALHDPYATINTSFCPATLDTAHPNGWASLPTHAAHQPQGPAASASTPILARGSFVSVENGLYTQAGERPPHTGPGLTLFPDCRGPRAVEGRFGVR

T4: hCD112R mFC recombinant protein (human; murine, UniProt Q6DKI7 41-160)
T4 construct: range 41-160; expressed in 293E cells; also called hCD112R ECD mFC; hCD112R-ECD-mFC; not shown: murine IgG2a Fc domain (MX2-mFc vector)
T4 sequence (looked up): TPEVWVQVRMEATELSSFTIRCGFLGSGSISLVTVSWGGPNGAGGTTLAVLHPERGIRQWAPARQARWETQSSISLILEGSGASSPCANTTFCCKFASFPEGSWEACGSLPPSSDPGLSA


Experiments:
[1] = target: T1, human CD112R on Jurkat CD112R effector …; assay: cell-based or functional assay
[2] = target: T2, human CD112R on CHO-CD112R cells; assay: FACS on CHO-CD112R cells
Description: (§1) CHO-CD112R cells (constructed in-house by Junshi, the amino acid sequence of CD112R in the construction of stable cell lines overexpressing CD112R comprises amino acids at positions Met1-Arg326 under NCBI accession No. Q6DKI7) overexpressing human CD112R were incubated with each of the chimeric anti-CD112R antibodies at different concentrations (initial concentration: 50 μg/mL, 5-fold dilution, 12 concentration gradients in total) at 4° C. for 30 min, and then washed and incubated with a fluorescence-labeled secondary antibody at 4° C. for 30 min in the dark. Finally, the cells were collected by using a flow cytometer (BD Canto II), and the fluorescent antibodies bound to the cell surface were detected. Raw data were analyzed by using FlowJo to obtain MFI values, the antibody dose-dependent binding curves were fitted by using GraphPad (FIG. 3, a and b) and EC₅₀ was calculated (Table 3). The positive control and the negative control were Ref (anti-CD112R antibody, University of Colorado, obtained by expression and purification according to the sequences in US20170240613) and anti-KLH hu-IgG4 antibody, respectively.

[3] = target: T3, recombinant cynomolgus monkey CD112R …; assay: ELISA, coated cynomolgus monkey CD112R
Description: (§2) A plate was coated with a recombinant cynomolgus monkey CD112R antigen (Acrobiosystems, Cat No. PVG-C5259) at a fixed concentration, and the chimeric anti-CD112R antibodies diluted in a gradient (initial concentration: 1 μg/mL, 2.5-fold gradient dilution, 12 concentration gradients in total) were added to bind to the antigen. Horseradish peroxidase (HRP)-conjugated mouse anti-human IgG4 Fc (Southern Biotech, 9200-05) was subjected to a 5000-fold dilution and used as a detection antibody for detection. The color development was performed with 0.1 mg/mL TMB, and finally stopped with 2 M hydrochloric acid. The plate was read at 420 nm/620 nm. EC₅₀ was obtained by fitting with a four-parameter logistic regression (4PL) model.

[4] = target: T2, human CD112R on CHO-CD112R cells; assay: FACS on CHO-CD112R cells; EC50 Ref/EC50 antibody
Description: as §1

[5] = target: T3, recombinant cynomolgus monkey CD112R …; assay: ELISA, coated cynomolgus monkey CD112R; EC50 Ref/EC50 antibody
Description: as §2

[6] = target: T1, human CD112R on Jurkat CD112R effector …; assay: cell-based or functional assay; remark: listed apart in the source
[7] = target: T4, hCD112R mFC recombinant protein; assay: ELISA, coated hCD112R-ECD-mFC
In short: (§3)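 Plates coated with hCD112R-ECD-mFC at 1.5 μg/mL; humanized antibodies titrated from 1 μg/mL, 2.5-fold, 12 points. Bound antibody detected with HRP anti-human IgG Fc and TMB, read at 420/620 nm; EC50 from 4PL fit, COM701 and anti-KLH hu-IgG4 as controls.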

[8] = target: T4, hCD112R mFC recombinant protein; assay: FACS competition, hCD112R mFc on CHO CD112 cells
In short: (§4)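 CHO cells overexpressing human CD112 were co-incubated 30 min at 4 °C with hCD112R mFc (5 μg/mL) and humanized anti-CD112R antibodies (from 100 μg/mL, 3-fold, 10 points). Bound fusion protein detected with anti-mouse IgG Fc secondary by flow cytometry; IC50 from four-parameter fit of MFI. COM701 served as positive control, anti-KLH hu-IgG4 as negative.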

[9] = target: T4, hCD112R mFC recombinant protein; assay: ELISA, coated hCD112R-ECD-mFC; EC50 COM701/EC50 antibody
In short: as §3

[10] = target: T4, hCD112R mFC recombinant protein; assay: FACS competition, hCD112R mFc on CHO CD112 cells; IC50 COM701/IC50 antibody
In short: as §4

| Binder | EC50, CD112R/CD112 reporter [1] [µg/mL] | Relative activity (%), EC50 Ref/EC50 antibody [1] [%] | EC50 [2] [µg/mL] | EC50 [3] [µg/mL] | Relative activity (%) [4] [%] | Relative activity (%) [5] [%] | EC50, CD112R/CD112 reporter [6] [µg/mL] | Relative activity (%), EC50 COM701/EC50 antibody [6] [%] | EC50 [7] [µg/mL] | IC50 [8] [µg/mL] | Relative activity (%) [9] [%] | Relative activity (%) [10] [%] |
| --- | --- | --- | --- | --- | --- | --- | --- | --- | --- | --- | --- | --- |
| Chi-45 (antibody, V domains shown, chimeric) VH: DVKLVESGGGLVKLGGSLKLSCAASGFTFSSYHMSWVRQTPEKRLELVAAINSNVISTYYLDTVKGRFTISRDNAKNTLYLQMSSLKSEDTALYYCARHEDYYGFAMDYWGQGTSVTVSS VL: SIVMTQTPKFLLVSAGDRVTITCKASQSVSNDVAWYQEKPGQSPKLLMYYVSHRFTGVPDRFTGSGYGTDFTFTINTVQAEDLAVYFCHQAYRSPWTFGGGTKLEIK | 0.0119 | 2710 | 0.726 | 0.00298 | 231 | 118 |  |  |  |  |  |  |
| Chi-54 (antibody, V domains shown, chimeric) VH: DVKLVESGGGLVKLGGSLKLSCAASGFTFSSYHMSWIRQTPEKRLELVAAINSNGINTYYLDTVKGRFTISRDNAKNTLYLQMSSLKSEDTALYYCARHEDYYGFAMDYWGQGTSVTVSS VL: SIVMTQTPKFLLVSAGDRVTITCKASQSVSNDVAWYQQKPGQSPKLLMYYVSNRFTGVPDRFTGSGYGTDFTFTINTVQAEDLAVYFCQQAYRSPWTFGGGTKLEIK | 0.00746 | 4210 | 0.122 | 0.00327 | 3520 | 107 |  |  |  |  |  |  |
| Chi-63 (antibody, V domains shown, chimeric) VH: DVKLVESGGGLVKLGGSLKLSCAASGFTFSSYHMSWVRQTPEKRLELVAAISRDGDSTYYPDTVKGRFTISRDDAENTLYLQMSSLKSEDTALYYCSRHEDYFGFAMDSWGQGTSVTVSS VL: SIVMTQTPKFLLVSAGDRVTITCKASQSVTNDVAWYQQKPGQSPKLLMYYVSNHYTGVPDRFIGSGYGTDFTFTISTVQAEDLAVYFCQQAYRSPWTFGGGTKLEIK | 0.0174 | 1490 | 0.531 | 0.00436 | 805 | 96.1 |  |  |  |  |  |  |
| Chi-36 (antibody, V domains shown, chimeric) VH: EVQLQQSGPELVKPGASVRISCKASGYTFTDYNMHWVKQSHGKSLEWIGYIYPYNGGTGHNQNFKSKATLTVDKSSSTAYMEFRSLTSDDSAVYYCAREDFRHEKMDYWGQGTSVTVSS VL: DIQMTQSPASLSASVGETVTITCRTSDNIYVYLSWYQQKQGKSPQLLVYNAKTLTENVPSRFSGSGSGTQFSLKINSLQPEDFGSYYCQHHYGTPYTFGGGTKLEIK | 0.0306 | 1060 | 0.351 | 0.00391 | 478 | 89.6 |  |  |  |  |  |  |

Second part, the binder after the results:

| EC50, CD112R/CD112 reporter [1] [µg/mL] | Relative activity (%), EC50 Ref/EC50 antibody [1] [%] | EC50 [2] [µg/mL] | EC50 [3] [µg/mL] | Relative activity (%) [4] [%] | Relative activity (%) [5] [%] | EC50, CD112R/CD112 reporter [6] [µg/mL] | Relative activity (%), EC50 COM701/EC50 antibody [6] [%] | EC50 [7] [µg/mL] | IC50 [8] [µg/mL] | Relative activity (%) [9] [%] | Relative activity (%) [10] [%] | Binder |
| --- | --- | --- | --- | --- | --- | --- | --- | --- | --- | --- | --- | --- |
|  |  | 12.3 |  | 35 |  |  |  |  |  |  |  | Chi-72 (antibody, V domains shown, chimeric) VH: DVQLVESGGGLVKLGGSLKLSCVASGFTFSSYHMSWIRQTPEKRLELVAAINSNDINTYYLDTVKGRFTISRDIAKNTLHLQMSSLKSEDTALYYCARHEDYYGFAMDYWGQGTSVTVSS VL: DIQLTQSPASLSVSVGETVTITCRVSANIYSNLVWYHQRQGKSPQLLVYGGTNLADGVPSRFSGSGSGTQFSLKINSLQSEDFGSYHCQHFWSTPYTFGGGTKLEIK |
|  |  |  |  |  |  | 0.0228 | 241 | 0.00418 | 2.12 | 136 | 169 | Hu17 (antibody, IgG4, V domains shown, humanized IgG4) VH: EVQLVESGGGLVKPGGSLRLSCAASGFTFSSYHMSWVRQAPGKGLELVSAISRDGDSTYYPDTVKGRFTISRDNAKNSLYLQMNSLRAEDTAVYYCSRHEDYFGFAMDSWGQGTLVTVSS VL: DIQMTQSPSSLSASVGDRVTITCKASQSVSNDVAWYQQKPGKAPKLLIYYVSNRFTGVPSRFSGSGSGTDFTLTISSLQPEDFATYFCQQAYRSPWTFGQGTKLEIK |
|  |  |  |  |  |  | 0.0341 | 157 | 0.00348 | 2.48 | 174 | 144 | Hu33 (antibody, IgG4, V domains shown, humanized IgG4) VH: EVQLVESGGGLVQPGGSLRLSCAASGFTFSSYHMSWVRQAPGKGLELVAAISRDGDSTYYPDTVKGRFTISRDDAENSLYLQMNSLRAEDTAVYYCSRHEDYFGFAMDSWGQGTLVTVSS VL: EIVMTQSPPTLSLSPGERVTLSCKASQSVSNDVAWYQEKPGQAPRLLIYYVSHRFTGIPARFSGSGSGTDFTLTISSLQPEDFAVYYCHQAYRSPWTFGQGTKLEIK |
|  |  |  |  |  |  | 0.0336 | 160 | 0.00368 | 2.4 | 162 | 149 | Hu34 (antibody, IgG4, V domains shown, humanized IgG4) VH: EVQLVESGGGLVQPGGSLRLSCAASGFTFSSYHMSWVRQAPGKGLELVAAISRDGDSTYYPDTVKGRFTISRDDAENSLYLQMNSLRAEDTAVYYCSRHEDYFGFAMDSWGQGTLVTVSS VL: DIVMTQSPDSLAVSLGERATINCKASQSVSNDVAWYQQKPGQPPKLLIYYVSHRFTGVPDRFSGSGSGTDFTLTISSLQAEDVAVYFCHQAYRSPWTFGQGTKLEIK |
